How the values were obtained:
[1] = tested on: acute myeloid leukemia (AML) at relapse; details: administered alone; cited from earlier work
[2] = tested on: cisplatin-ineligible patients with T2 T4N0M0 MIBC; details: cited from earlier work
[3] = tested on: patients receiving enfortumab vedotin; assay: Reports of severe cutaneous adverse reactions in patients receiving enfortumab vedotin; format: in vivo, human
Excerpt: These reactions occurred predominantly during the first cycle of treatment. AEs reported in these cases included Stevens-Johnson Syndrome (SJS) (5 cases), blister (3 cases), dermatitis bullous (3 cases), symmetrical drug-related intertriginous and flexural exanthema (SDRIFE; 2 cases), and 1 case each of dermatitis exfoliative, exfoliative rash, epidermal necrosis, oropharyngeal blistering, stomatitis, and toxic epidermal necrolysis (TEN).

[4] = tested on: urothelial carcinoma subjects; assay: Enfortumab vedotin monotherapy studies of urothelial carcinoma, SAEs of severe cutaneous adverse reactions; format: in vivo, human
[5] = tested on: cisplatin-ineligible patients with muscle invasive bladder cancer (MIBC); assay: Phase 1b/2 study (Cohort H): neoadjuvant EV monotherapy followed by RC+PLND, antitumor activity (pCR, pDS, EFS); format: in vivo, human
Method: Treatment with enfortumab vedotin monotherapy is evaluated in patients with MIBC. This study enrolls approximately 20 patients with cT2-T4aN0M0 MIBC.
pCR is the primary endpoint and is defined as the absence of viable tumor (pT0N0) in examined tissue from RC+PLND. pCR is assessed by central pathology review after RC+PLND with curative intent. Post-RC restaging is performed via the same radiologic modalities at the first follow-up disease assessment scan (12 weeks after RC+PLND). During the first 2 years on study, follow-up is performed every 12 weeks (±14 days) from RC+PLND until disease progression/recurrence, patient death study closure, or withdrawal of consent, whichever occurs first. After 2 years on study, the frequency of visits including response assessments is reduced to every 24 weeks (±14 days). Tumor imaging should also be performed whenever disease progression is suspected.
Radiographic disease progression precluding a curative intent surgery noted prior to RC+PLND, failure to undergo RC+PLND for patients with residual muscle invasive disease and/or any radiographic disease present, gross residual disease left behind at time of RC+PLND, local or distant recurrence post-RC as assessed radiographically and/or confirmed with biopsy (local pathology review), or death from any cause are considered EFS events. Patients who are found to have EFS events but are still alive are to transition into long-term follow-up.
Tumor tissue samples collected from the patient's diagnostic TURBT within 90 days prior to the first dose of study treatment are sent for central pathology review. Tissue samples from RC+PLND will also be sent for central pathology review of pathologic response assessment. Tumor response is assessed after RC+PLND with curative intent by pathology review analysis. Pathologic staging information includes TNM classification, histology, lymph node counts, and surgical margins.
The pCRR is defined as the proportion of patients having pCR. pCR is defined as the absence of viable tumor (pT0N0) in examined tissue from RC+PLND.
pDSR is defined as the proportion of patients having pDS. pDS is defined as patients with <pT2 (includes pT0, pTis, pTa, pT1) and N0 in examined tissue from RC+PLND.
EFS is defined as the time from the start of study treatment to the first occurrence of any of the following events: • Radiographic disease progression precluding a curative intent surgery prior to RC+PLND • Failure to undergo RC+PLND for participants with residual muscle-invasive disease and/or any radiographic disease present • Gross residual disease left behind at time of RC+PLND (surgeon unable to complete curative intent surgery due to unresectable tumor or newly discovered metastatic disease) • Local or distant recurrence post-RC as assessed by CT or MRI and/or biopsy. If biopsy is not feasible due to participant safety, CT/MRI alone is sufficient • Death from any cause
Patients who refuse surgery but without a post-screening scan are censored at study day 1.
(§1) The methods for this Section 6.2 (Example 2) were as described in Section 6.1 (Example 1). […] Patients received 3 cycles of neoadjuvant EV (1.25 mg/kg) on Days 1 and 8 of every 3-week cycle prior to RC+PLND. The primary endpoint of the study was pathological complete response rate (pCRR; ypT0N0) by central review. Key secondary endpoints included pathological downstaging (pDS) rate (yp T0, Tis, Ta, T1,N0) and safety.

[6] = tested on: cisplatin-ineligible patients with muscle invasive bladder cancer (MIBC); assay: Phase 1b/2 study (Cohort H): safety, tolerability, exposure and disposition with neoadjuvant EV monotherapy and RC+PLND; format: in vivo, human
Excerpt: Safety assessments are based on the information collected through the safety surveillance process and will include the data from recorded AEs, including serious adverse events (SAEs), concomitant medications, physical examination findings, cardiac monitoring, and laboratory tests. Safety is monitored over the course of the study by the SMC.
The safety analysis evaluates the type, incidence, severity, seriousness, and relatedness of AEs, and the type, incidence, and severity of laboratory abnormalities. The incidence, duration, and resolution of AEs of special interest (AESIs) are summarized.
The assessment of safety during the course of this study will consist of the surveillance and recording of AEs including SAEs, recording of concomitant medication, and measurements of protocol-specified physical examination findings, cardiac monitoring, and laboratory tests.
AE severity should be graded using the National Cancer Institute's Common Terminology Criteria for Adverse Events (NCI CTCAE), Version 4.03.
An overview of AEs provide a tabulation, by cohort and overall, of the incidence of all AEs, TEAEs, treatment-related AEs, Grade 3 and higher AEs, SAEs, treatment-related SAEs, deaths, and AEs leading to study treatment discontinuation. AEs are defined as treatment emergent if they are newly occurring or worsen following study treatment.
AEs are listed and summarized by Medical Dictionary for Regulatory Activities (MedDRA), preferred term, severity, and relationship to study drug. In the event of multiple occurrences of the same AE with the same preferred term in 1 patient, the AE are counted once as the occurrence. The incidence of AEs are tabulated by preferred term and cohorts. AEs leading to premature discontinuation of study drug are summarized and listed in the same manner.
as §1

[7] = tested on: patients with T2 T3bN0M0 MIBC; details: cited from earlier work
[8] = 2 cycles of 1200 mg prior to RC, 69 patients
[9] = 2 cycles of 1200 mg prior to RC
[10] = EFS by investigator assessment, EV Mono N = 22
[11] = Present study, cisplatin ineligible, EV monotherapy x 3 cycles, sample size 22
[12] = by investigator assessment, N = 22

CT-011
response in treating acute myeloid leukemia (AML) at relapse [1]: failed to show response

atezolizumab
pCR, patients [2, 8]: 29% | safety findings [2, 8]: no significant safety findings | pCR, PD-L1-negative cohort [2, 9]: 16% | pCR, patients with PD-L1-positive disease [2, 9]: 40% | patients down staged to non-muscle invasive disease [2, 9]: 39% | PCR (no viable tumor at surgery), ypT0 + ypTis ([2]; ABACUS, cisplatin ineligible, Atezolizumab x 2, sample size 88): 31% (ypT0 +

enfortumab vedotin
severe cutaneous adverse reaction reports: SDRIFE ([3]; 15 patients): 2 cases | severe cutaneous adverse reaction reports: Stevens-Johnson Syndrome (SJS) ([3]; 15 patients): 5 cases | severe cutaneous adverse reaction reports: blister ([3]; 15 patients): 3 cases | severe cutaneous adverse reaction reports: dermatitis bullous ([3]; 15 patients): 3 cases | severe cutaneous adverse reaction reports: dermatitis exfoliative ([3]; 15 patients): 1 case | severe cutaneous adverse reaction reports: epidermal necrosis ([3]; 15 patients): 1 case | severe cutaneous adverse reaction reports: exfoliative rash ([3]; 15 patients): 1 case | severe cutaneous adverse reaction reports: oropharyngeal blistering ([3]; 15 patients): 1 case | severe cutaneous adverse reaction reports: stomatitis ([3]; 15 patients): 1 case | severe cutaneous adverse reaction reports: toxic epidermal necrolysis (TEN) ([3]; 15 patients): 1 case | patients with reports of severe cutaneous adverse reactions ([3]; some had fatal outcomes, predominantly during the first cycle): 15 patients | SAE of severe cutaneous adverse reaction: SJS ([4]; 749 subjects): 0.1% | SAE of severe cutaneous adverse reaction: blister ([4]; 749 subjects): 0.1% | SAE of severe cutaneous adverse reaction: conjunctivitis ([4]; 749 subjects): 0.1% | SAE of severe cutaneous adverse reaction: dermatitis bullous ([4]; 749 subjects): 0.4% | SAE of severe cutaneous adverse reaction: drug eruption ([4]; 749 subjects): 0.4% | SAE of severe cutaneous adverse reaction: stomatitis ([4]; 749 subjects): 0.1% | SAE of severe cutaneous adverse reaction: toxic skin eruption ([4]; 749 subjects): 0.1% | SAEs of severe cutaneous adverse reactions ([4]; 749 subjects): 1.5% | SAEs of severe cutaneous adverse reactions ([4]; of 749 subjects, EV monotherapy studies of urothelial carcinoma): 11 subjects

enfortumab vedotin [EV Mono]
pathological complete response (pCR), patients ([5]; 3 cycles neoadjuvant EV 1.25 mg/kg Days 1 and 8 of 3-week cycle, preliminary analysis of 22 patients): 36% | Number of subjects who have recurrence or died [5, 10]: 5 | Subjects who have recurrence or died, figure in parentheses (share of N = 22) [5, 10]: (22.7) | PCR (no viable tumor at surgery), ypT0 and ypTis [5, 11]: 45.5% (ypT0 | PCR (no viable tumor at surgery), ypT0 only [5, 11]: 32% (ypT0 | pDS (non-muscle invasive disease at surgery), includes pCR [5, 11]: 50% (includes | EFS Rate at 6 months [5, 12]: 88.2% | Event free-survival (EFS), 25th percentile [5, 12]: 6.7, — months | Event free-survival (EFS), median [5, 12]: not reached | Event free-survival (EFS), observed min [5, 12]: 2.60 months | Event free-survival (EFS), observed max ([5]; by investigator assessment, N = 22, + printed after value): ≥ 12.32 months | EFS Rate at 12 months ([5]; by investigator assessment, N = 22, one subject censored at study day 190 due to a data issue): 60.5% | pCRR compared with rates seen with chemotherapy in cisplatin-eligible MIUC patients ([5]; cisplatin-ineligible MIBC patients, neoadjuvant EV): compares favorably | AECI Any infusion related reactions, ≥Grade 3 ([6]; EV Mono N = 22): 0 n | AECI Any ocular disorder: Blurred vision, ≥Grade 3 ([6]; EV Mono N = 22): 0 n | AECI Any ocular disorder: Corneal disorders, Any Grade ([6]; EV Mono N = 22): 0 n | AECI Any ocular disorder: Corneal disorders, ≥Grade 3 ([6]; EV Mono N = 22): 0 n | AECI Any ocular disorder: Dry eye, ≥Grade 3 ([6]; EV Mono N = 22): 0 n | AECI Any peripheral neuropathy, ≥Grade 3 ([6]; EV Mono N = 22): 0 n | Any TEAEs leading to bladder surgery not performed ([6]; EV Mono N = 22): 0 n | EV-related TEAEs leading to bladder surgery not performed ([6]; EV Mono N = 22): 0 n | EV-related TEAEs leading to death ([6]; EV Mono N = 22): 0 n | RC-related TEAEs leading to death ([6]; EV Mono N = 22): 0 n | TEAE (Table 27) Hyperglycaemia ([6]; EV Mono N = 22, listed as EV): 13.6% | TEAE (Table 27) Small intestinal obstruction ([6]; EV Mono N = 22, listed as EV): 9.1% | TEAE (Table 27) Urinary tract infection ([6]; EV Mono N = 22, listed as EV): 9.1% | patients with Grade 3 or higher TEAEs ([6]; EV monotherapy and RC+PLND): 59.1% | tolerability of 3 cycles of neoadjuvant treatment ([6]; cisplatin-ineligible MIBC patients): well-tolerated | Grade 5 AE Acute Kidney Injury: Days from RC + PLND ([6]; in vivo): 62 days | Grade 5 AE Acute Kidney Injury: Days from last dose of EV ([6]; in vivo): 142 days | Grade 5 AE Cardiac Arrest: Days from RC + PLND ([6]; in vivo): 15 days | Grade 5 AE Cardiac Arrest: Days from last dose of EV ([6]; in vivo): 45 days | Grade 5 AE Saddle PE: Days from RC + PLND ([6]; in vivo): 55 days | Grade 5 AE Saddle PE: Days from last dose of EV ([6]; in vivo): 127 days | patients whose grade 5 AEs occurred >30 days after the end of study treatment ([6]; in vivo): 2 pts | patients with grade 5 adverse events while on the study ([6]; in vivo): 3 patients | observed safety profile of neoadjuvant EV monotherapy ([6]; patients in this study): consistent with the known safety profile of EV | Rash maculo-papular leading to EV discontinuation: AE onset after last EV dose ([6]; subject completed Cycle 2, Gr3): ^cSubject completed Cycle 2. AE onset occurred 4 days after last EV dose. (Gr3)

pembrolizumab
pCR rate ([7]; 3 cycles of 200 mg before RC, among 50 treated patients): 42% | pCR rate in patients with PD L1 positive disease ([7]; 3 cycles of 200 mg before RC): 54.3% | pathologic downstaging rate ([7]; 3 cycles of 200 mg before RC): 65.7% | safety of neoadjuvant administration ([7]; 3 cycles of 200 mg before RC): safely administered | pDS (non-muscle invasive disease at surgery), includes pCR ([7]; PURE-01, Pembrolizumab x 3, sample size 50): 54% (includes | PCR (no viable tumor at surgery) ([7]; PURE-01, cisplatin eligible (n = 42) and ineligible (n = 8), Pembrolizumab x 3, sample size 50): 42%

Reference: patent publication US20250064956A1, “METHODS FOR TREATING MUSCLE INVASIVE UROTHELIAL CANCER OR MUSCLE INVASIVE BLADDER CANCER WITH ANTIBODY DRUG CONJUGATES (ADC) THAT BIND TO 191P4D12 PROTEINS” (AGENSYS, INC., priority 2022, published 2025)
